Data on six molecules can be found in patent US20230235058A1 (OXFORD UNIVERSITY INNOVATION, published 2023).

For assay [1], the target named is T1, human FcγR3A 158V (human, UniProt P08637 17-208).
T1 construct: extracellular domain
Put plainly: SPR 37C, steady state; wild-type hIgG1 Fc.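 Also: fc variants captured on chip-bound human BTLA ectodomain, recombinant FcγR ectodomains injected as analyte at varied concentrations, double-referenced equilibrium binding fitted to Langmuir model.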
Procedure: (§1) For the low affinity FcγRs (FcγR2A, FcγR2B, FcγR3A and FcγR3B) the interactions were assessed by surface plasmon resonance with the recombinantly expressed FcRs (extracellular domains only) as analyte. Briefly, recombinant human BTLA extracellular domain (BTLA^K31-R151) was covalently immobilised to both flow cells of all channels of a CMS Series S sensor chip using the GE Healthcare Amine coupling kit. The 2.8.6 Fc variant to be assessed was then captured (approx. 500-1000 response units) in flow cell 2 of each channel. Steady state affinity analysis was then performed by injecting varying concentrations of FcR in multiple cycles and measuring equilibrium binding. Double referencing was used (subtracting the signal in the reference Fc1 and also subtracting the signal from a blank zero concentration injection). KDs were calculated from the Langmuir curves (plotting equilibrium binding against analyte concentration to determine the concentration required for half maximal binding).

In assay [2] the target is T2, human FcγR2A 131R (human, UniProt P12318 34-217).
T2 construct: extracellular domain
T2 sequence (looked up): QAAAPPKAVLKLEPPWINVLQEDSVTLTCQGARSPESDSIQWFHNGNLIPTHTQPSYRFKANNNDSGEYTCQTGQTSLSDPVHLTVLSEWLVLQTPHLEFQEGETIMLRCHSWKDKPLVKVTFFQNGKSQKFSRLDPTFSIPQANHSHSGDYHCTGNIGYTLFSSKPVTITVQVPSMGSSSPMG
As to the kind of experiment: SPR 37C, steady state; wild-type hIgG1 Fc.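 Also: fc variants captured on chip-bound human BTLA ectodomain, recombinant FcγR ectodomains injected as analyte at varied concentrations, double-referenced equilibrium binding fitted to Langmuir model.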
Procedure: as §1

Assay [3] concerns the target T3, human FcγR3A 158F (human, UniProt P08637 17-208).
T3 construct: extracellular domain
Put plainly: SPR 37C, steady state; wild-type hIgG1 Fc.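 Also: fc variants captured on chip-bound human BTLA ectodomain, recombinant FcγR ectodomains injected as analyte at varied concentrations, double-referenced equilibrium binding fitted to Langmuir model.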
Procedure: as §1

The target in assay [4] is T4, human FcγR2B (human, UniProt P31994 43-217).
T4 construct: extracellular domain; also called hFcγR2B; CD32B
T4 sequence (looked up): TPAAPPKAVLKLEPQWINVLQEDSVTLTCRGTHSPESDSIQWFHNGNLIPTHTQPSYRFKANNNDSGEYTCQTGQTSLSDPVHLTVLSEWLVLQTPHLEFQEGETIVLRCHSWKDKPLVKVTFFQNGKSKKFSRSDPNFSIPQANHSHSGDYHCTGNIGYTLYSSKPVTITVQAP
As to the kind of experiment: SPR 37C, steady state; wild-type hIgG1 Fc.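 Also: fc variants captured on chip-bound human BTLA ectodomain, recombinant FcγR ectodomains injected as analyte at varied concentrations, double-referenced equilibrium binding fitted to Langmuir model.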
Procedure: as §1

Assay [5] deals with T5, human FcγR3B (human, UniProt O75015 17-200, limits assumed).
T5 construct: extracellular domain; also called CD16B
Put plainly: SPR 37C, steady state; wild-type hIgG1 Fc.
Procedure: as §1

The target in assay [6] is T6, human FcγR2A 131H (human, UniProt P12318 34-217).
T6 construct: extracellular domain
T6 sequence (looked up): T2 sequence (looked up) with R134H
As to the kind of experiment: SPR 37C, steady state; wild-type hIgG1 Fc.
Procedure: as §1

For another assay, the target named is T7, human FcRn (human, UniProt P55899 24-297; P61769 21-119, limits assumed, biotinylated).
T7 construct: bought; also called FcRn pH6
As to the kind of experiment: SPR, pH6.0. (In general: Surface plasmon resonance follows binding to a sensor surface in real time, without labels.)

Assay [7] deals with T8, human FcγR1A (human, UniProt P12314 16-288, biotinylated).
T8 construct: bought; also called CD64A
As to the kind of experiment: SPR 37C, kinetic; wild-type hIgG1 Fc.
Procedure: (§2) For the high affinity FcR interactions (FcγR1A, and also FcRn assessed at pH6.0) the binding was assessed in a kinetic analysis with antibody as analyte. […] Reference flow cell 1 was left empty in all channels. Purified antibody was then injected at a single concentration and on/off rates calculated by curve fitting on BiaEvaluation software.

For assay [8], the target named is T8, human FcγR1A. As to the kind of experiment: SPR 37C, kinetic.
Procedure: as §2
Assay [9] has as its target T1, human FcγR3A 158V. As to the kind of experiment: SPR 37C, steady state.
Assay [10] concerns the target T2, human FcγR2A 131R. Put plainly: SPR 37C, steady state.
Assay [11] concerns the target T3, human FcγR3A 158F. Put plainly: SPR 37C, steady state.
Assay [12] concerns the target T4, human FcγR2B. As to the kind of experiment: SPR 37C, steady state.
Assay [13] addresses T6, human FcγR2A 131H. As to the kind of experiment: SPR 37C, steady state.
Assay [14] addresses T9, monomeric soluble human BTLA extracellular domain (BTLA K31-R151) (human, UniProt Q7Z6A9 31-151).
T9 construct: also called hBTLA; monomeric BTLA
Put plainly: SPR Biacore 8K 37C, single cycle kinetics.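 Also: antibody captured on sensor chip, soluble BTLA extracellular domain flowed over at several concentrations in HBS-EP pH 7.4, rates fitted after subtracting isotype-control reference channel and blank.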
Procedure: (§3) The binding affinity and kinetics of humanised BTLA agonist antibodies to human or cynomolgus BTLA were determined by surface plasmon resonance using the Biacore 8K (GE Healthcare). […] Anti-BTLA antibody was then captured onto the biosensor surface and a negative control antibody (human IgG1k isotype control; Sino Biological cat #HG1K) captured in the reference channel. Various concentrations of monomeric soluble human BTLA extracellular domain (BTLA^K31-R151, produced recombinantly in house) or soluble cynomolgus macaque BTLA extracellular domain (BTLA^K31-R151, produced recombinantly in house) were then injected over the immobilized antibodies in the buffer HBS-EP (GE Healthcare, cat #BR100669), pH 7.4 (HBS-P) at 37° C., in a single cycle kinetics analysis.

Assay [15] has as its target T10, soluble cynomolgus macaque BTLA extracellular domain (BTLA K31-R151) (cynomolgus macaque).
T10 construct: also called cynomolgus BTLA; cyno BTLA
T10 chain: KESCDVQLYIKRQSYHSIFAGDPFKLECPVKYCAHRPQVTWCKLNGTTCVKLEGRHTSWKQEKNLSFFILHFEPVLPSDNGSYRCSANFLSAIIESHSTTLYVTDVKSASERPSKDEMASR
Put plainly: SPR Biacore 8K 37C, single cycle kinetics.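 Also: antibody captured on sensor chip, soluble BTLA extracellular domain flowed over at several concentrations in HBS-EP pH 7.4, rates fitted after subtracting isotype-control reference channel and blank.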
Procedure: as §3

The target of assay [16] is T11, full length human BTLA expressed on cells (human, UniProt Q7Z6A9 31-289). Put plainly: cell-based or functional assay.
The target in assay [17] is T12, full length cynomolgus BTLA expressed on Jurkat cells (cynomolgus monkey, UniProt Q7Z6A9 31-289 (human entry)).
T12 construct: also called cynomolgus BTLA expressing cells
T12 chain: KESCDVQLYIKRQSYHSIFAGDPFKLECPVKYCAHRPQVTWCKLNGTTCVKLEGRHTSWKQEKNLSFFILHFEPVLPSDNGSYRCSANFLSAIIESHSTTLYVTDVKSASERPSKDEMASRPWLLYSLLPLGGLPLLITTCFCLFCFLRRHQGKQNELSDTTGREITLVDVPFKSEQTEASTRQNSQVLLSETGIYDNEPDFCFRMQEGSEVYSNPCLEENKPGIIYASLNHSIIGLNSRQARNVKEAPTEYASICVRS
As to the kind of experiment: flow cytometry, BTLA Jurkat cells. A general note: In flow cytometry, cells or beads pass a laser one at a time.
Procedure: (§4) A lentiviral transfection system was used to express full length human or cynomolgus BTLA in a Jurkat T cell line. 1×10⁵ cells per well were plated in 96 well U-bottom plates. […] Secondary antibody was incubated for 30 minutes on ice, then cells were washed and resuspended in FACS buffer for analysis on a flow cytometer. The geometric mean fluorescent intensity of secondary antibody was plotted for each concentration and the EC50 for receptor binding calculated by non-linear curve fitting using GraphPad Prism software.
(§5) The ability of the BTLA agonist antibodies of the present invention to bind to human or cynomolgus BTLA expressed on the cell surface was assessed by flow cytometry. A lentiviral transfection system was used to express full length human or cynomolgus BTLA in a Jurkat T cell line. 1×10⁵ cells per well were plated in 96 well U-bottom plates.

Assay [18] has as its target T11, full length human BTLA expressed on …. As to the kind of experiment: flow cytometry, BTLA Jurkat cells.
Procedure: as §4, §5
In assay [19] the target is T5, human FcγR3B. As to the kind of experiment: SPR 37C, steady state.
The target in assay [20] is T9, monomeric soluble human BTLA …. As to the kind of experiment: SPR, monomeric BTLA.

Positions count from the first letter of the chain named. Numbers in names are those of the source.

T1 sequence (P08637 17-208 F176V): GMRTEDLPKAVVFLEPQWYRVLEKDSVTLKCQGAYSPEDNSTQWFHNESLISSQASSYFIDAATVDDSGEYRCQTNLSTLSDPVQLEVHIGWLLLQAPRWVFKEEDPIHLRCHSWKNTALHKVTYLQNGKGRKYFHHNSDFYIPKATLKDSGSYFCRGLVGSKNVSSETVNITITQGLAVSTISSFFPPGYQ
T8 sequence (P12314 16-288): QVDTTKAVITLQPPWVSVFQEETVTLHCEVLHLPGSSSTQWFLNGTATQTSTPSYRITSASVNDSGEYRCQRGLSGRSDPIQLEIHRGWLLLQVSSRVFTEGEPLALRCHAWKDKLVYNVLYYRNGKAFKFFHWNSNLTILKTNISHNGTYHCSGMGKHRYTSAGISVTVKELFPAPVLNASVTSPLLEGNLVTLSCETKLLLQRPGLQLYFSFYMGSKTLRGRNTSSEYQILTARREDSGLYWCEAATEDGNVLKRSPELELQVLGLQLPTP
T7 sequence (P55899 24-297 limits assumed, chain 1 of 2): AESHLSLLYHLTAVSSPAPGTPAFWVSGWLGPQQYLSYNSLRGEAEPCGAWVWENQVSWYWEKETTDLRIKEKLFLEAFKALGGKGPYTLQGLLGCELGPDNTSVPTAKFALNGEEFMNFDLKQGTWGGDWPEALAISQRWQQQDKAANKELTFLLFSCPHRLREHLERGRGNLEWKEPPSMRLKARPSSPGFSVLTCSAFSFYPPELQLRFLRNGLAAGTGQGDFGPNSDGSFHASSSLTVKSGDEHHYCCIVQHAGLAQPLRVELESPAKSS
T7 sequence (P61769 21-119 limits assumed, chain 2 of 2): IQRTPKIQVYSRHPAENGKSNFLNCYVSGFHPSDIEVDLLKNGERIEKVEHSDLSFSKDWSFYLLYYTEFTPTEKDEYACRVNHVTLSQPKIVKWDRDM
T3 sequence (P08637 17-208): as the sequence (P08637 17-208 F176V) above, with V160F counted along it
T5 sequence (O75015 17-200 limits assumed): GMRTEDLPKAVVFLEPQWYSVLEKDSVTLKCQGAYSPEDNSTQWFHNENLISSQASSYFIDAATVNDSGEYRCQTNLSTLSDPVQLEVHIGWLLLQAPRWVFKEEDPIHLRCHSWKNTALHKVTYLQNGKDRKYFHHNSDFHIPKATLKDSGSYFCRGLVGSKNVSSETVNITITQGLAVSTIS
Procedure for human FcRn: For the high affinity FcR interactions (FcγR1A, and also FcRn assessed at pH6.0) the binding was assessed in a kinetic analysis with antibody as analyte. […] Reference flow cell 1 was left empty in all channels. Purified antibody was then injected at a single concentration and on/off rates calculated by curve fitting on BiaEvaluation software. […] IgG Fc has two binding sites for FcRn so this assessment performed with FcRn immobilised at high density provides an avidity estimate for the interaction rather than a true KD.

B1: humanised 2.8.6 hIgG1 (antibody)
heavy: not shown
VL: EIVLTQSPATLSLSPGERATLSCRASSSVSYMHWYQQKPGQAPRPLIYATSNRATGIPARFSGSGSGTDYTLTISSLEPEDFAVYYCHQWSSNPYTFGQGTKLEIKRTVAAPSVFIFPPSDEQLKSGTASVVCLLNNFYPREAKVQWKVDNALQSGNSQESVTEQDSKDSTYSLSSTLTLSKADYEKHKVYACEVTHQGLSSPVTKSFNRGEC
notes: Fc variant with the variable domains of humanised 2.8.6; not shown: human IgG1 heavy chain constant region; copies: 2 + 2
For orientation: Kd means the equilibrium constant for the complex coming apart. Read a low Kd as a tighter complex. For the molecule B1, the Kd with human FcγR3A 158V [1] was 2.78 µM; with human FcγR2A 131R [2], 1.57 µM; with human FcγR3A 158F [3], 9.37 µM; in the assay with human FcγR2B [4], 8.65 µM; in the assay with human FcγR3B [5], 22.9 µM; with human FcγR2A 131H [6], 1.98 µM. Also, in the assay with human FcγR1A [7], binding was put at a Kd of 0.00375 µM. In addition, in the assay with human FcRn, the “avidity (FcRn pH6)” value amounted to 4.58 nM.

B2: humanised 2.8.6 hIgG1 delta ac (antibody)
chain 1: QVTLKESGPALVKPTQTLTLTCTVSGFSLTTYGVHWIRQPPGKALEWLGVMWPGGRTSYNPSLKSRLTITKDNSKSQVVLTMTNMDPVDTATYYCVRGDYEYDYYAMDYWGQGTLVTVSSASTKGPSVFPLAPSSKSTSGGTAALGCLVKDYFPEPVTVSWNSGALTSGVHTFPAVLQSSGLYSLSSVVTVPSSSLGTQTYICNVNHKPSNTKVDKKVEPKSCDKTHTCPPCPAPPVAGGPSVFLFPPKPKDTLMISRTPEVTCVVVDVSHEDPEVKFNWYVDGVEVHNAKTKPREEQYNSTYRVVSVLTVLHQDWLNGKEYKCKVSNKGLPSSIEKTISKAKGQPREPQVYTLPPSRDELTKNQVSLTCLVKGFYPSDIAVEWESNGQPENNYKTTPPVLDSDGSFFLYSKLTVDKSRWQQGNVFSCSVMHEALHNHYTQKSLSLSP
chain 2: B1 VL
With B2, the dissociation constant Kd in the assay with human FcγR1A [8] came to 2.85 µM; with human FcγR3A 158V [9], 96.4 µM; in the assay with human FcγR2A 131R [10], 79.3 µM; with human FcγR3A 158F [11] it was 344 µM; with human FcγR2B [12], 131 µM; with human FcγR2A 131H [13], 82.2 µM. Moreover, the “avidity (FcRn pH6)” value with human FcRn amounted to 11.9 nM.

B3: Humanised 2.8.6 (hIgG1 P238D) (antibody)
heavy: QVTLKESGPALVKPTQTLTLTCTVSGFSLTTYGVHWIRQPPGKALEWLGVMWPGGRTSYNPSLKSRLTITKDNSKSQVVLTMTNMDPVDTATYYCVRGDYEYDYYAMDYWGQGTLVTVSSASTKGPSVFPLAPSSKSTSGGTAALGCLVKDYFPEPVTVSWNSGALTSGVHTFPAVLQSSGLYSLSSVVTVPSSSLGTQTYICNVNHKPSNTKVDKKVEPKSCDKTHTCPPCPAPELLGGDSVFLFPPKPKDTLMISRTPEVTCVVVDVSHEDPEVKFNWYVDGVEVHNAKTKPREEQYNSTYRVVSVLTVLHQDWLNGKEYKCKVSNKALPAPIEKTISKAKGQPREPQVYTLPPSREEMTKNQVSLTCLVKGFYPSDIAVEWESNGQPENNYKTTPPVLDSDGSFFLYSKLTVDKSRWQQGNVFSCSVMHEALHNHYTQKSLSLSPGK
light: B1 VL
notes: copies: 2 + 2
As usually defined, the koff is the rate constant with which the complex falls apart. A word on the kon: it is the rate constant with which the complex forms. The low end stands for slow association, the high end for fast association. Usually EC50 stands for the concentration that produces a half-maximal response. Low values mean higher potency in that assay, high ones lower potency in that assay. B3: the Kd in assay [14] amounted to 0.00233 µM; in assay [15], 0.147 µM; with human FcγR1A [8], 0.465 µM; with human FcγR3A 158V [9], 7010 µM; in the assay with human FcγR2A 131R [10] it was 28.9 µM; in the assay with human FcγR3A 158F [11], 2480 µM. The Kd with human FcγR2B [12] came to 4.78 µM; with human FcγR3B [19] it was 1580 µM; in the assay with human FcγR2A 131H [13], 76.5 µM; in assay [20], 0.00073 µM. Besides, the koff turned out to be 0.00157 s⁻¹ in assay [14] and 0.025 s⁻¹ in [15]. The kon in assay [14] stood at 673000 M⁻¹ s⁻¹; in [15], 170000 M⁻¹ s⁻¹. For the same molecule, the “inhibition of NFkB signal, IC50” value in [16] worked out at 0.059 nM. Also, the “maximal inhibition of NFkB signal” value in assay [16] is 42%. In addition, the “avidity (FcRn pH6)” value with human FcRn is 1.43 nM. Further, the EC50 is 0.000854 µM in assay [17] and 0.066 nM in assay [18].

B4: humanised 2.8.6 hIgG1 D265A G236D S267E A330R (antibody)
heavy: QVTLKESGPALVKPTQTLTLTCTVSGFSLTTYGVHWIRQPPGKALEWLGVMWPGGRTSYNPSLKSRLTITKDNSKSQVVLTMTNMDPVDTATYYCVRGDYEYDYYAMDYWGQGTLVTVSSASTKGPSVFPLAPSSKSTSGGTAALGCLVKDYFPEPVTVSWNSGALTSGVHTFPAVLQSSGLYSLSSVVTVPSSSLGTQTYICNVNHKPSNTKVDKKVEPKSCDKTHTCPPCPAPELLDGPSVFLFPPKPKDTLMISRTPEVTCVVVAVEHEDPEVKFNWYVDGVEVHNAKTKPREEQYNSTYRVVSVLTVLHQDWLNGKEYKCKVSNKALPRPIEKTISKAKGQPREPQVYTLPPSREEMTKNQVSLTCLVKGFYPSDIAVEWESNGQPENNYKTTPPVLDSDGSFFLYSKLTVDKSRWQQGNVFSCSVMHEALHNHYTQKSLSLSPGK
light: B1 VL
notes: Fc variant with the variable domains of humanised 2.8.6; copies: 2 + 2
B4: the binding result with human FcγR1A [8], in the assay with human FcγR3A 158V [9], with human FcγR3A 158F [11], in the assay with human FcγR3B [19] and with human FcγR2A 131H [13] was “no binding” throughout. For the same molecule, the Kd with human FcγR2A 131R [10] was 54.4 µM; in the assay with human FcγR2B [12], 104 µM.

B5: Engineered humanised 6.2 (Variant C) (antibody, V domains shown)
VH: EVQLVESGGGLVKPGGSLRLSCAASGFTLSSYGMSWVRQAPGKGLEWVASIRSDGQTYYPDSVKGRFTISRDNAKNTLYLQMSSLRAEDTAVYYCTRGGYYGSSPYYWGQGTTVTVSS
VL: DIVMTQSPLSLPVTPGEPASISCKSSQSLLYSSNQKNYLAWYQQKPGQSPKLLIYWASTRESGVPDRFSGSGSGTDFTLKISRVEAEDVGVYYCQQYYNYLTFGGGTKVEIKR
In assay [14], B5 displayed a Kd of 0.00125 µM, a koff of 0.00133 s⁻¹ and an on-rate (kon) of 1.06e+06 M⁻¹ s⁻¹. In assay [15], binding was characterised by a dissociation constant (Kd) of 0.0154 µM, the koff was found to be 0.00352 s⁻¹ and the kon came to 229000 M⁻¹ s⁻¹. Also, in assay [16], the “inhibition of NFkB signal, IC50” value came out at 0.028 nM and the “maximal inhibition of NFkB signal” value is 47%. Further, in assay [17], the 50% effective concentration (EC50) turned out to be 0.000148 µM. Besides, a half-maximal effect in [18] (EC50) was put at 0.062 nM.

B6: Engineered humanised 3E8 (Variant B) (antibody, V domains shown)
VH: QVQLVQSGAELKKPGASVKVSCKASGYTFTSYAIRWVRQATGQGLEWMGEIYPRSGNTYYAQKFQGRATLTADKSISTAYMELSSLRSEDTAVYFCARSGGASYTMDYWGQGTTVTVSS
VL: ENVLTQSPATLSLSLGERATLSCSASSSVSSSYLHWYQQKPDQSPRPLIHRTSNLASGIPSRFSGSGSGTDYTLTISSLEAEDFAVYYCQQWSGYPFTFGSGTKLEIKR
As for B6, in assay [14], the Kd came out at 0.141 µM, the koff was 0.122 s⁻¹ and the kon was found to be 865000 M⁻¹ s⁻¹. In assay [15], the Kd came to 1.52 µM, the koff stood at 0.431 s⁻¹ and the kon was determined as 287000 M⁻¹ s⁻¹. In [16], the “inhibition of NFkB signal, IC50” value amounted to 0.065 nM and the “maximal inhibition of NFkB signal” value was determined as 54%. Further, the EC50 in assay [17] is 0.0156 µM. Besides, the EC50 in [18] amounted to 0.177 nM.
